In the data set the target is METTL3;METTL14 (human?;human?, UniProt Q86U44;Q9HCE5 1-580;1-456, |). Nature of the data set: filter binding.

Experimental findings from publication PMC5855951 are described below.

Sequence of METTL3;METTL14 (Q86U44 whole entry, chain 1 of 2): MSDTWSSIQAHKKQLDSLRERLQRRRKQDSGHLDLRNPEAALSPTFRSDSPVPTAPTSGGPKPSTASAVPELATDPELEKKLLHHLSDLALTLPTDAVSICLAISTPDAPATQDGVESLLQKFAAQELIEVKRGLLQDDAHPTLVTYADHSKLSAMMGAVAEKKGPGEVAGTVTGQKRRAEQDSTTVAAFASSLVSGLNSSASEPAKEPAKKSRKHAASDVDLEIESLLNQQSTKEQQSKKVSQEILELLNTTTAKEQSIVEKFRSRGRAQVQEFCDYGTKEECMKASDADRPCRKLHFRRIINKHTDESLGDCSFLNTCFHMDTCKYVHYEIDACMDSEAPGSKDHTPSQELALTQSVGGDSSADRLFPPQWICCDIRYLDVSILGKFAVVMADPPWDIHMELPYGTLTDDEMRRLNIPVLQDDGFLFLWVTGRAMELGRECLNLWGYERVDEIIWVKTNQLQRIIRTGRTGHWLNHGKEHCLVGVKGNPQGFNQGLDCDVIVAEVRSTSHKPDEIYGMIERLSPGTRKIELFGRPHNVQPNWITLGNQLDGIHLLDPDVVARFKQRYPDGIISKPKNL
Sequence of METTL3;METTL14 (Q9HCE5 whole entry, chain 2 of 2): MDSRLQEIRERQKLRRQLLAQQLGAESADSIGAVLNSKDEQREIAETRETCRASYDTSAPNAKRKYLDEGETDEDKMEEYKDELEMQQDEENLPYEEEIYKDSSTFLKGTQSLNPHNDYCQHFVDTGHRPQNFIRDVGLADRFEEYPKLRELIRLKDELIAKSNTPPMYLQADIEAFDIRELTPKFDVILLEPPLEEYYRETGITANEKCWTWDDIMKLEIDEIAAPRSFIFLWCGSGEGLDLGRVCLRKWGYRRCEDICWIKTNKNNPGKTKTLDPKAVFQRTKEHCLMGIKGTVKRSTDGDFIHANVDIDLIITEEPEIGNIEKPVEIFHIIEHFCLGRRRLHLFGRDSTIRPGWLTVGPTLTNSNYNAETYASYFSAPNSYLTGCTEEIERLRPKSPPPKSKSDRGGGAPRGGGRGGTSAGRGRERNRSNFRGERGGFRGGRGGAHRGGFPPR

B1: 4x GGACU RNA probe (ssRNA)
RNA: GGACUGGACUGGACUGGACU
With B1, the binding result is given as “binds”.
